Drawing on the supplement of paper PMC10126150, this text covers switch fluorescence ratio for 120 sequences.

± gives the standard deviation of the averaged measurements.

The series relates to ATP. Kind of series: switch fluorescence ratio, 500 uM ATP over buffer (Cy3 cluster intensity, sum of 5 cycles each) (fold (ratio)); higher = stronger signal-on switching upon ATP binding; sequences stand for … in TCGTCGGCAGCGTCAGATGTGTATAAGAGACAGTTTTTTTTTTTTTTTTTTTTTTTTT…TC. Particulars: aptamer strand: ATP DNA aptamer (quencher-CACCTGGGGGAGTATTGCGGAGGAAGG + anchor), 100 nM annealed; ATP concentration: 500 uM. The method in brief: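 The quencher-labelled ATP aptamer, at 100 nM, was annealed to Cy3-labelled switching-strand clusters on a modified Illumina MiSeq flow-cell. The clusters were imaged in selection buffer, then after 15 min with 500 uM ATP at 22 °C, and this buffer/ATP cycle ran five times with NaOH stripping and re-annealing between runs. Per-cluster fluorescence ratios, summed target-cycle over summed buffer-cycle Cy3 intensity, were averaged per switch-domain sequence. Clusters outside 100-1000 RFU were excluded.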
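Note: ATP exposure 15 min at 22 °C before imaging.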

Turning to TGGGTGATCG, the switch fluorescence ratio is 1.03 ± 0.067.
In the case of TTCGTGGGGG it was 0.991 ± 0.015; in that of TTCTCACGTC, 1.01 ± 0.082.
As for ACGCTTGGGA, the switch fluorescence ratio stood at 0.998 ± 0.048.
Regarding GAGAGTGGGC, the switch fluorescence ratio turned out to be 1 ± 0.043.
Next, GGGTTTGGCG: 0.999 ± 0.2.
As for CAAGTAGCGA, the switch fluorescence ratio was 1.088 ± 0.0072.
In the case of GATGGTGGTG, the switch fluorescence ratio is 1 ± 0.029.
Next, TTATGAAATG: 1 ± 0.025; CATGATAGGG: 1.01 ± 0.031; ACGGTTGGT: 1.02 ± 0.012.
In the case of GGGGAGTTCG it was 0.983 ± 0.019.
Next, TTACTTTGGG: 0.9892 ± 0.0065; TAAAGTATAT: 0.9976 ± 0.004; TTAGCGCTTT: 0.9853 ± 0.0082.
For CAAGGGGATT, the switch fluorescence ratio turned out to be 1 ± 0.027.
In the case of GATTGGGCTT it was 0.998 ± 0.0097; in that of CGGCTTAATA, 1.02 ± 0.019.
Next, TGGGCTGTTT: 1.012 ± 0.01; CGAGTCGGGA: 0.999 ± 0.021.
In the case of TTAAGCTGGT it was 0.985 ± 0.022.
Regarding TTTTAACTTC, the switch fluorescence ratio amounted to 1 ± 0.014.
In the case of GATCATGTAC it was 1.14 ± 0.036; in that of TATGTATCTA, 1.02 ± 0.043; in that of TGCTGTGGAA, 1.011 ± 0.0096.
In the case of TTGGTGGGCA it was 0.993 ± 0.038; in that of AGAGGGTTAC, 0.999 ± 0.036.
In the case of TAGATGCCAG it was 1.07 ± 0.039; in that of TATGAGGGCG, 1.04 ± 0.041; in that of AATTGCTTGT, 0.978 ± 0.02.
Turning to GGTCTGCGCG, the switch fluorescence ratio turned out to be 1.02 ± 0.037.
In the case of TAGGGAAAAG it was 0.99 ± 0.013; in that of GAATGCTGGT, 0.966 ± 0.023; in that of CAATAGATGT, 1.042 ± 0.0021.
In the case of TCATTTAAGG it was 0.987 ± 0.02; in that of TTCTGGAACT, 1.03 ± 0.015.
Take GTAGTATCAG: the switch fluorescence ratio was 1 ± 0.017.
In the case of GGTTTGGTTC it was 0.957 ± 0.083; in that of GTGGGCCTTT, 0.987 ± 0.015; in that of CAGTTCAGTA, 0.992 ± 0.03.
Next, AATTACTTTT: 1.02 ± 0.02.
Next, AACCGCGATG: 2.25 ± 0.1; AAAGGCGTAA: 0.997 ± 0.013.
Consider CAAAAAAATG, for which the switch fluorescence ratio turned out to be 0.999 ± 0.03.
Next, GGGGGTGGTT: 0.99 ± 0.037; CGGGGGGA: 1.39 ± 0.54; TTTAGGCAT: 0.986 ± 0.028.
As to CTGGTGTCAC, the switch fluorescence ratio was 1.01 ± 0.029.
For the sequence CGGGGCGCGC, the switch fluorescence ratio was 1.02 ± 0.044.
Regarding TGGGACTGTA, the switch fluorescence ratio was 1.14 ± 0.073.
In the case of GGATACCGTA it was 1 ± 0.085.
In the case of CGCAATTCGA it was 3.57 ± 1.3; in that of ATCGCATATG, 1.08 ± 0.053.
For GGAGAGAGGG, the switch fluorescence ratio amounted to 1.02 ± 0.044.
Next, TTCACAAGGT: 1.004 ± 0.0049; CGAATAGGCG: 0.976 ± 0.048.
In the case of TTCATATCAT it was 1 ± 0.03.
Consider GATTTAGCTA, for which the switch fluorescence ratio worked out at 1.014 ± 0.0034.
In the case of TAGACGGATT it was 1.04 ± 0.066.
Next, TCTATCAGGG: 0.995 ± 0.011; GCCATTAGCA: 1.022 ± 0.005; TAGGTATGGC: 0.976 ± 0.012.
Take AATAGTTTAT: the switch fluorescence ratio was determined as 0.986 ± 0.022.
In the case of AAGGACGCCA it was 1.05 ± 0.028; in that of CGCTTATGCA, 1.02 ± 0.02; in that of AGAGGGGGTG, 0.96 ± 0.013.
Take TGAGAGGCGT: the switch fluorescence ratio was found to be 1.022 ± 0.0098.
Next, TTGGTGGTTC: 0.99 ± 0.037; ATACGGGAGC: 1.01 ± 0.048; GAACCAGTGC: 1.23 ± 0.083.
In the case of ATGTTTTCTG it was 0.968 ± 0.04.
In the case of AGACACGTTA it was 1.28 ± 0.017; in that of TTAAAGAGAA, 1 ± 0.013.
Turning to AATTCGGCTT, the switch fluorescence ratio came to 0.978 ± 0.0088.
In the case of GAAGTAACAG it was 1.03 ± 0.027; in that of GCACGGGCAC, 1.18 ± 0.18.
In the case of AACAGCAATT it was 1.27 ± 0.35.
Next, GCCATGTTGA: 1.02 ± 0.0063.
For the sequence GAGAGGTTTG, the switch fluorescence ratio was 0.9818 ± 0.008.
Next, TTTTGGTAAA: 1 ± 0.038.
In the case of CAGGGTGAAT it was 0.9909 ± 0.0056; in that of TTTTGGATCT, 0.982 ± 0.023.
Next, TCGTGAGTTT: 0.996 ± 0.035.
In the case of GGGACAGCGT, the switch fluorescence ratio was 1.03 ± 0.025.
In the case of GGAAACAGGA it was 1.02 ± 0.05; in that of TCCTGCTGTT, 0.998 ± 0.02.
Next, CTGTGGGTAG: 1.03 ± 0.021; AGGGGACTTT: 0.978 ± 0.013; CGGTCGGTTG: 1.06 ± 0.022.
Next, ATGTGTTGTG: 0.98 ± 0.021; TTCACGAAGA: 1 ± 0.0015; TGAATGTTGG: 0.988 ± 0.025.
On to TTTGTAAGGC, for which the switch fluorescence ratio was determined as 1.08 ± 0.13.
In the case of ATCTCTGGTC it was 0.976 ± 0.027.
In the case of TGCGTTTCGA it was 1.03 ± 0.025; in that of AGTTATAAAG, 0.986 ± 0.037.
In the case of AGATATTGGG it was 0.992 ± 0.068.
TTAGTAAACA: the switch fluorescence ratio worked out at 1.01 ± 0.049.
Next, TATAGAAAAT: 1.03 ± 0.026; GGAGTGGGTC: 1.02 ± 0.041; ATGGTCTGCG: 1 ± 0.018.
Next, GCAGTGGGTG: 0.998 ± 0.012.
In the case of ACCGGTTAAC it was 1.02 ± 0.035; in that of TATGGGTGTG, 1.02 ± 0.037.
TGCTATTTAC: the switch fluorescence ratio came to 1.1 ± 0.069.
With ACCGAGATCA, the switch fluorescence ratio came to 1.03 ± 0.014.
On to GGTTCAAGGC, for which the switch fluorescence ratio is 1.05 ± 0.051.
In the case of GGTCTGTATT it was 0.972 ± 0.012; in that of TTAATATCCT, 1.06 ± 0.026; in that of AGTTCCATCG, 1.05 ± 0.047.
Next, AATCAGTGTA: 1 ± 0.051; CGTGTATGTG: 0.969 ± 0.043.
Next, ATAACGTAGC: 1.11 ± 0.059; CGAGCAGAGT: 1.13 ± 0.021.
For GGGCAATTGC, the switch fluorescence ratio amounted to 1.01 ± 0.059.
In the case of AATTGATCGT it was 0.982 ± 0.024.
Next, TGGGGGATG: 0.971 ± 0.018.
Next, CAGTTAGATT: 1.01 ± 0.028.
In the case of CGTTTCGTGC, the switch fluorescence ratio came out at 0.9919 ± 0.003.
In the case of AGGTTGAGGA it was 0.964 ± 0.033.
